Experimental data from patent US20200277396A1.

Tests used:
[1] = molecular target: human CD83, cell surface, on lymphoma cells (human) (UniProt Q01151); assay: flow cytometry, HB15a-FITC on KM-H2 cells, gate placed right of the grey isotype control histogram
[2] = molecular target: human CD83, cell surface, on lymphoma cells (human) (UniProt Q01151); assay: flow cytometry, HB15a-FITC on HDLM2 cells, gate placed right of the grey isotype control histogram
[3] = molecular target: human CD83, cell surface, on lymphoma cells (human) (UniProt Q01151); assay: flow cytometry, HB15a-FITC on L428 cells, gate placed right of the grey isotype control histogram
[4] = molecular target: human CD83, cell surface, on lymphoma cells (human) (UniProt Q01151); assay: flow cytometry, HB15e-FITC on HDLM2 cells, gate placed right of the grey isotype control histogram
[5] = molecular target: human CD83, cell surface, on lymphoma cells (human) (UniProt Q01151); assay: flow cytometry, HB15e-FITC on L428 cells, gate placed right of the grey isotype control histogram
[6] = molecular target: human CD83, cell surface, on lymphoma cells (human) (UniProt Q01151); assay: flow cytometry, HB15e-FITC on KM-H2 cells, gate placed right of the grey isotype control histogram

Chain of UniProt Q01151 (Q01151 20-205): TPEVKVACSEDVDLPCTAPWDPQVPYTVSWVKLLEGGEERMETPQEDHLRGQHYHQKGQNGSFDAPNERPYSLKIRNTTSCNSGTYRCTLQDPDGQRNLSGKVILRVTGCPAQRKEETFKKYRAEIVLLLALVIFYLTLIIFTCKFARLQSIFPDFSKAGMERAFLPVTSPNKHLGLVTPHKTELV

| Substance | positive gate (percent of cells in the gate) [1] | positive gate (percent of cells in the gate) [2] | positive gate (percent of cells in the gate) [3] | positive gate (percent of cells in the gate) [4] | positive gate (percent of cells in the gate) [5] | positive gate (percent of cells in the gate) [6] |
| --- | --- | --- | --- | --- | --- | --- |
| HB15a, mouse anti-human CD83 monoclonal antibody (Beckman and Coulter) | 99.5 | 14.7 | 27.2 |  |  |  |
| HB15e, mouse anti-human CD83 monoclonal antibody (BD Biosciences) |  |  |  | 32.5 | 60 | 99 |
